B1: MKK7 D-site peptide (second D-site) / JNK1 alpha1 (MAPK8 isoform 1) L198A, full length (parent complex)
chain 1: SQPQRPRPTLQLPLANEAFEQP
chain 2: MSRSKRDNNFYSVEIGDSTFTVLKRYQNLKPIGSGAQGIVCAAYDAILERNVAIKKLSRPFQNQTHAKRAYRELVLMKCVNHKNIIGLLNVFTPQKSLEEFQDVYIVMELMDANLCQVIQMELDHERMSYLLYQMLCGIKHLHSAGIIHRDLKPSNIVVKSDCTLKILDFGLARTAGTSFMMTPYVVTRYYRAPEVIAGMGYKENVDLWSVGCIMGEMVCHKILFPGRDYIDQWNKVIEQLGTPCPEFMKKLQPTVRTYVENRPKYAGYSFEKLFPDVLFPADSEHNKLKASQARDLLSKMLVIDASKRISVDEALQHPYINVWYDPSEAEAPPPKIPDKQLDEREHTIEEWKELIYKEVMDLEERTKNGVIRGQPSPLAQVQQ

In the assay the parent is B1.
For the variant chain 1 P6A, chain 1 N16A, the screen value is 1.19 Z-score of the enrichment rate within one screen of 711 sequences.

Take chain 1 T9A, chain 1 Q11A: the screen value was 1.19 Z-score of the enrichment rate within one screen of 711 sequences.

With chain 1 P3S, chain 1 Q4K, the screen value is 1.43 Z-score of the enrichment rate within one screen of 711 sequences.

As for chain 1 P3A, chain 1 L10A, the screen value was -0.251 Z-score of the enrichment rate within one screen of 711 sequences.

Regarding chain 1 R7A, chain 1 T9A, the screen value was 0.112 Z-score of the enrichment rate within one screen of 711 sequences.

As for chain 1 L12A, chain 1 N16A, the screen value was -0.599 Z-score of the enrichment rate within one screen of 711 sequences.

Take chain 1 A15Y: the screen value is 1.64 Z-score of the enrichment rate within one screen of 711 sequences.

Consider chain 1 A15R, for which the screen value was 1.69 Z-score of the enrichment rate within one screen of 711 sequences.

As for chain 1 A15P, the screen value is 1.61 Z-score of the enrichment rate within one screen of 711 sequences.

In the case of chain 1 A15H, the screen value was 1.57 Z-score of the enrichment rate within one screen of 711 sequences.

For chain 1 A15M, the screen value is 1.57 Z-score of the enrichment rate within one screen of 711 sequences.

As for chain 1 A15L, the screen value is 1.8 Z-score of the enrichment rate within one screen of 711 sequences.

Regarding chain 1 A15G, the screen value is 1.63 Z-score of the enrichment rate within one screen of 711 sequences.

For the variant chain 1 L14A, chain 1 N16A, the screen value is 0.658 Z-score of the enrichment rate within one screen of 711 sequences.

As to chain 1 Q11A, chain 1 L14A, the screen value is 0.716 Z-score of the enrichment rate within one screen of 711 sequences.

For the variant chain 1 N16Y, the screen value is 1.82 Z-score of the enrichment rate within one screen of 711 sequences.

For the variant chain 1 N16D, the screen value was 1.03 Z-score of the enrichment rate within one screen of 711 sequences.

On to chain 1 N16F, for which the screen value is 1.8 Z-score of the enrichment rate within one screen of 711 sequences.

Take chain 1 N16I: the screen value is 1.55 Z-score of the enrichment rate within one screen of 711 sequences.

With chain 1 N16K, the screen value is 1.7 Z-score of the enrichment rate within one screen of 711 sequences.

Take chain 1 N16M: the screen value is 1.27 Z-score of the enrichment rate within one screen of 711 sequences.

In the case of chain 1 N16R, the screen value was 1.4 Z-score of the enrichment rate within one screen of 711 sequences.

Turning to chain 1 P3A, chain 1 R7A, the screen value is 0.212 Z-score of the enrichment rate within one screen of 711 sequences.

For the variant chain 1 Q4A, chain 1 L12A, the screen value was -0.309 Z-score of the enrichment rate within one screen of 711 sequences.

Turning to chain 1 R5T, the screen value is 1.01 Z-score of the enrichment rate within one screen of 711 sequences.

In the case of chain 1 R5N, the screen value is 0.604 Z-score of the enrichment rate within one screen of 711 sequences.

With chain 1 R5H, the screen value is 0.688 Z-score of the enrichment rate within one screen of 711 sequences.

chain 1 R5K: the screen value was 1.36 Z-score of the enrichment rate within one screen of 711 sequences.

Turning to chain 1 R5M, the screen value was 0.716 Z-score of the enrichment rate within one screen of 711 sequences.

On to chain 1 R5C, for which the screen value was 0.699 Z-score of the enrichment rate within one screen of 711 sequences.

Take chain 1 R5F: the screen value is 1.12 Z-score of the enrichment rate within one screen of 711 sequences.

Turning to chain 1 R5G, the screen value was 0.242 Z-score of the enrichment rate within one screen of 711 sequences.

With chain 1 R5Q, the screen value was 1.01 Z-score of the enrichment rate within one screen of 711 sequences.

For the variant chain 1 P3L, the screen value was 1.07 Z-score of the enrichment rate within one screen of 711 sequences.

Take chain 1 P3R: the screen value was 1.66 Z-score of the enrichment rate within one screen of 711 sequences.

In the case of chain 1 P3K, the screen value is 1.42 Z-score of the enrichment rate within one screen of 711 sequences.

Consider chain 1 P3C, for which the screen value was 1.42 Z-score of the enrichment rate within one screen of 711 sequences.

Turning to chain 1 P3H, the screen value is 1.27 Z-score of the enrichment rate within one screen of 711 sequences.

For chain 1 P3E, the screen value is 1.21 Z-score of the enrichment rate within one screen of 711 sequences.

chain 1 P3T: the screen value was 1.7 Z-score of the enrichment rate within one screen of 711 sequences.

For chain 1 P3Y, the screen value was 1.41 Z-score of the enrichment rate within one screen of 711 sequences.

For the variant chain 1 P3G, the screen value is 1.4 Z-score of the enrichment rate within one screen of 711 sequences.

For the variant chain 1 P3A, the screen value was 1.42 Z-score of the enrichment rate within one screen of 711 sequences.

Consider chain 1 P6A, chain 1 P8A, for which the screen value was 0.889 Z-score of the enrichment rate within one screen of 711 sequences.

On to chain 1 P8D, for which the screen value is 0.613 Z-score of the enrichment rate within one screen of 711 sequences.

As to chain 1 P8Y, the screen value was 0.574 Z-score of the enrichment rate within one screen of 711 sequences.

Turning to chain 1 P8H, the screen value was 0.889 Z-score of the enrichment rate within one screen of 711 sequences.

Take chain 1 P8G: the screen value was 0.304 Z-score of the enrichment rate within one screen of 711 sequences.

Take chain 1 P8R: the screen value was 0.631 Z-score of the enrichment rate within one screen of 711 sequences.

For the variant chain 1 P8T, the screen value was 0.655 Z-score of the enrichment rate within one screen of 711 sequences.

Regarding chain 1 P8S, the screen value was 0.564 Z-score of the enrichment rate within one screen of 711 sequences.

chain 1 P8A, chain 1 L12A: the screen value is -0.717 Z-score of the enrichment rate within one screen of 711 sequences.

In the case of chain 1 R7A, chain 1 P13A, the screen value was 0.166 Z-score of the enrichment rate within one screen of 711 sequences.

On to chain 1 Q4A, chain 1 L14A, for which the screen value was 0.562 Z-score of the enrichment rate within one screen of 711 sequences.

chain 1 L14C: the screen value was 1.27 Z-score of the enrichment rate within one screen of 711 sequences.

For the variant chain 1 L14E, the screen value was 0.365 Z-score of the enrichment rate within one screen of 711 sequences.

Turning to chain 1 L14N, the screen value was 0.512 Z-score of the enrichment rate within one screen of 711 sequences.

Regarding chain 1 L14M, the screen value is 0.805 Z-score of the enrichment rate within one screen of 711 sequences.

In the case of chain 1 L14Q, the screen value was 0.637 Z-score of the enrichment rate within one screen of 711 sequences.

As to chain 1 L14V, the screen value is 0.826 Z-score of the enrichment rate within one screen of 711 sequences.

On to chain 1 L14W, for which the screen value was 1.36 Z-score of the enrichment rate within one screen of 711 sequences.

On to chain 1 L14S, for which the screen value is 0.942 Z-score of the enrichment rate within one screen of 711 sequences.

With chain 1 L14G, the screen value was 0.653 Z-score of the enrichment rate within one screen of 711 sequences.

As for chain 1 P8A, chain 1 N16A, the screen value is 0.523 Z-score of the enrichment rate within one screen of 711 sequences.

Take chain 1 L10A, chain 1 L12A: the screen value is -0.511 Z-score of the enrichment rate within one screen of 711 sequences.

Turning to chain 1 L10A, chain 1 N16A, the screen value is -0.696 Z-score of the enrichment rate within one screen of 711 sequences.

As for chain 1 R7S, the screen value is -0.155 Z-score of the enrichment rate within one screen of 711 sequences.

Turning to chain 1 R7W, the screen value is 0.391 Z-score of the enrichment rate within one screen of 711 sequences.

On to chain 1 R7H, for which the screen value is 0.435 Z-score of the enrichment rate within one screen of 711 sequences.

Turning to chain 1 R7T, the screen value is 0.638 Z-score of the enrichment rate within one screen of 711 sequences.

With chain 1 R7C, the screen value is 0.232 Z-score of the enrichment rate within one screen of 711 sequences.

In the case of chain 1 R7D, the screen value was -0.584 Z-score of the enrichment rate within one screen of 711 sequences.

On to chain 1 R7Y, for which the screen value is 0.245 Z-score of the enrichment rate within one screen of 711 sequences.

Consider chain 1 P3A, chain 1 P13A, for which the screen value was 1.51 Z-score of the enrichment rate within one screen of 711 sequences.

On to chain 1 Q4A, chain 1 Q11A, for which the screen value was 1.43 Z-score of the enrichment rate within one screen of 711 sequences.

For the origin of these results see doi:10.1101/2021.08.20.457142.
